Laboratory results: US20250026846A1 (JCR PHARMACEUTICALS, published 2025)
Each block holds one binder with its values, some of them ahead of it.

Legend:
[1] = target: T1, recombinant human TfR (r human TfR: Sino Biological Inc.), hTfR extracellular region with a histidine tag at … (human, UniProt P02786 89-760); experiment: BLI (Octet RED96), His-tagged TfR ECD on Ni-NTA sensor
T1 construct: Bought from Sino Biological; also called r human TfR-ECD (Histag); recombinant hTfR; not shown: histidine tag at the N-terminus

[2] = target: T2, recombinant monkey TfR (r monkey TfR: Sino Biological Inc.), crab-eating monkey TfR extracellular region with … (crab-eating monkey (Macaca fascicularis)); experiment: as above
T2 construct: Bought from Sino Biological; also called r monkey TfR-ECD (Histag); not shown: histidine tag at the N-terminus
T2 chain: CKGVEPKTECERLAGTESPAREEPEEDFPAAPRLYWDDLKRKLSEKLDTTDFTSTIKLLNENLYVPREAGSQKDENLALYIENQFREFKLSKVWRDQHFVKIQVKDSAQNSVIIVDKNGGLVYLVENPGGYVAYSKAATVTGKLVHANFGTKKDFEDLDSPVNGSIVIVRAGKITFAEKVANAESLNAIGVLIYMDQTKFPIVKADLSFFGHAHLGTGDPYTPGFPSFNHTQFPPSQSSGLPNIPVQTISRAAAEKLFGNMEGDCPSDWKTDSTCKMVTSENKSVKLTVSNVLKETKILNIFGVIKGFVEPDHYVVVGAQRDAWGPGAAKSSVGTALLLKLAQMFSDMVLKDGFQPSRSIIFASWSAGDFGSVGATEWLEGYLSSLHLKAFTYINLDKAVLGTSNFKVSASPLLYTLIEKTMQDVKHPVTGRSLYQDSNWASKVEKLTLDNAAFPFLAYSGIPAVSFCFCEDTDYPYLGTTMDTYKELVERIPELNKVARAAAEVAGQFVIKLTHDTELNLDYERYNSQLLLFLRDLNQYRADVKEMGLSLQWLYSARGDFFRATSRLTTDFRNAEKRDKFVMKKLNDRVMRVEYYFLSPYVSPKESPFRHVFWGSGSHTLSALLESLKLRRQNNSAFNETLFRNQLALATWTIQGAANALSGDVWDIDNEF

Kd [1]: < 1 pM
koff [1]: < 1e-07 s⁻¹
kon [1]: 282000 M⁻¹ s⁻¹
Kd [2]: 323 pM
koff [2]: 4.88e-05 s⁻¹
kon [2]: 151000 M⁻¹ s⁻¹
B1: Fab GS3-FUCA1 (other)
light: DIVMTQTPLSLSVTPGQPASISCRSSQSLVHSNGNTYLHWYLQKPGQSPQLLIYKVSNRFSGVPDRFSGSGSGTDFTLKISRVEAEDVGVYYCSQSTHVPWTFGQGTKVEIKRTVAAPSVFIFPPSDEQLKSGTASVVCLLNNFYPREAKVQWKVDNALQSGNSQESVTEQDSKDSTYSLSSTLTLSKADYEKHKVYACEVTHQGLSSPVTKSFNRGEC
heavy: EVQLVQSGAEVKKPGESLKISCKGSGYSFMNYWLGWVRQMPGKGLEWMGDIYPGGDYPTYSEKFKVQVTISADKSISTAYLQLSSLKASDTAMYYCARSGNYDEVAYWGQGTLVTVSSASTKGPSVFPLAPSSKSTSGGTAALGCLVKDYFPEPVTVSWNSGALTSGVHTFPAVLQSSGLYSLSSVVTVPSSSLGTQTYICNVNHKPSNTKVDKKVEPKSCDKTHTGGGGSGGGGSGGGGSQPPRRYTPDWPSLDSRPLPAWFDEAKFGVFIHWGVFSVPAWGSEWFWWHWQGEGRPQYQRFMRDNYPPGFSYADFGPQFTARFFHPEEWADLFQAAGAKYVVLTTKHHEGFTNWPSPVSWNWNSKDVGPHRDLVGELGTALRKRNIRYGLYHSLLEWFHPLYLLDKKNGFKTQHFVSAKTMPELYDLVNSYKPDLIWSDGEWECPDTYWNSTNFLSWLYNDSPVKDEVVVNDRWGQNCSCHHGGYYNCEDKFKPQSLPDHKWEMCTSIDKFSWGYRRDMALSDVTEESEIISELVQTVSLGGNYLLNIGPTKDGLIVPIFQERLLAVGKWLSINGEAIYASKPWRVQWEKNTTSVWYTSKGSAVYAIFLHWPENGVLNLESPITTSTTKITMLGIQGDLKWSTDPDKGLFISLPQLPPSAVPAEFAWTIKLTGVK
notes: also called Fab HC-GS3-FUCA1

Kd [1]: < 1 pM
koff [1]: < 1e-07 s⁻¹
kon [1]: 729000 M⁻¹ s⁻¹
Kd [2]: < 1 pM
koff [2]: < 1e-07 s⁻¹
kon [2]: 357000 M⁻¹ s⁻¹
B2: Fab GS3-LAMAN (other)
light: B1 light
heavy: EVQLVQSGAEVKKPGESLKISCKGSGYSFMNYWLGWVRQMPGKGLEWMGDIYPGGDYPTYSEKFKVQVTISADKSISTAYLQLSSLKASDTAMYYCARSGNYDEVAYWGQGTLVTVSSASTKGPSVFPLAPSSKSTSGGTAALGCLVKDYFPEPVTVSWNSGALTSGVHTFPAVLQSSGLYSLSSVVTVPSSSLGTQTYICNVNHKPSNTKVDKKVEPKSCDKTHTGGGGSGGGGSGGGGSGGYETCPTVQPNMLNVHLLPHTHDDVGWLKTVDQYFYGIKNDIQHAGVQYILDSVISALLADPTRRFIYVEIAFFSRWWHQQTNATQEVVRDLVRQGRLEFANGGWVMNDEAATHYGAIVDQMTLGLRFLEDTFGNDGRPRVAWHIDPFGHSREQASLFAQMGFDGFFFGRLDYQDKWVRMQKLEMEQVWRASTSLKPPTADLFTGVLPNGYNPPRNLCWDVLCVDQPLVEDPRSPEYNAKELVDYFLNVATAQGRYYRTNHTVMTMGSDFQYENANMWFKNLDKLIRLVNAQQAKGSSVHVLYSTPACYLWELNKANLTWSVKHDDFFPYADGPHQFWTGYFSSRPALKRYERLSYNFLQVCNQLEALVGLAANVGPYGSGDSAPLNEAMAVLQHHDAVSGTSRQHVANDYARQLAAGWGPCEVLLSNALARLRGFKDHFTFCQQLNISICPLSQTAARFQVIVYNPLGRKVNWMVRLPVSEGVFVVKDPNGRTVPSDVVIFPSSDSQAHPPELLFSASLPALGFSTYSVAQVPRWKPQARAPQPIPRRSWSPALTIENEHIRATFDPDTGLLMEIMNMNQQLLLPVRQTFFWYNASIGDNESDQASGAYIFRPNQQKPLPVSRWAQIHLVKTPLVQEVHQNFSAWCSQVVRLYPGQRHLELEWSVGPIPVGDTWGKEVISRFDTPLETKGRFYTDSNGREILERRRDYRPTWKLNQTEPVAGNYYPVNTRIYITDGNMQLTVLTDRSQGGSSLRDGSLELMVHRRLLKDDGRGVSEPLMENGSGAWVRGRHLVLLDTAQAAAAGHRLLAEQEVLAPQVVLAPGGGAAYNLGAPPRTQFSGLRRDLPPSVHLLTLASWGPEMVLLRLEHQFAVGEDSGRNLSAPVTLNLRDLFSTFTITRLQETTLVANQLREAASRLKWTTNTGPTPHQTPYQLDPANITLEPMEIRTFLASVQWKEVDG
notes: also called Fab HC-GS3-LAMAN
